Experiments:
[1] = biological target: T1, CD22 extracellular domain (CD22 ECD) produced in HEK293F cells (Homo sapiens, UniProt P20273); experiment: ITC
[2] = biological target: CD22 construct with smaller N-linked glycans (human) (UniProt P20273); experiment: BLI
[3] = biological target: T1, CD22 extracellular domain (CD22 ECD) …; experiment: BLI

T1 sequence (P20273 20-687): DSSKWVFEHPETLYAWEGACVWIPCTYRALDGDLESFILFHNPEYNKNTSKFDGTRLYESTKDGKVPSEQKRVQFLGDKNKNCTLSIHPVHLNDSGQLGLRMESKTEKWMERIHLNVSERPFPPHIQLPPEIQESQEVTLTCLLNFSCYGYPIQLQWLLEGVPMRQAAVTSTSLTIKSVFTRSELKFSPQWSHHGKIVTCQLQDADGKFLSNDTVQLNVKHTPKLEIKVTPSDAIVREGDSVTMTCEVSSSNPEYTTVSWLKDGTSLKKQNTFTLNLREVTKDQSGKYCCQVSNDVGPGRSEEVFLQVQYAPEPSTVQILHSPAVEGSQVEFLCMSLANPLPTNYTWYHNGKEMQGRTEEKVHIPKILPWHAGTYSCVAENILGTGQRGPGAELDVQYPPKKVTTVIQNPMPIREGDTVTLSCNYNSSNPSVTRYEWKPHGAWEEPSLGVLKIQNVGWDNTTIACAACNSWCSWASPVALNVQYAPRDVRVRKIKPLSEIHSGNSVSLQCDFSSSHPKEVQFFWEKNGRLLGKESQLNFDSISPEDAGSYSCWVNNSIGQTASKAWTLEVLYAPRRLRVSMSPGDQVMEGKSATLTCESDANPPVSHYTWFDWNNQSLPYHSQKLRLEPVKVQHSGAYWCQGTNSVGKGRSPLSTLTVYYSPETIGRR
Sequence of CD22 construct with smaller N-linked glycans (human) (P20273 20-687): as above

Kd [1]: 188 nM
Kd [2]: 24 nM
Kd [3]: 327 nM
B1: epratuzumab Fab (Fab, V domains shown)
VH: QVQLVQSGAEVKKPGSSVKVSCKASGYTFTSYWLHWVRQAPGQGLEWIGYINPRNDYTEYNQNFKDKATITADESTNTAYMELSSLRSEDTAFYFCARRDITTFYWGQGTTVTVSS
VL: DIQLTQSPSSLSASVGDRVTMSCKSSQSVLYSANHKNYLAWYQQKPGKAPKLLIYWASTRESGVPSRFSGSGSGTDFTLTISSLQPEDIATYYCHQYLSSWTFGGGTKLEIK

— article PMC6124603 (Journal of Visualized Experiments : JoVE, 2018)
